Assay: yeast display, Sf9 membrane polyspecificity reagent, FACS + sequencing; frameworks hold sequencing errors
Method in brief: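 Polyreactivity labels are assigned by the sorting gate from which each nanobody was recovered. The gates were low and high (top ~1%), set on anti-HA fluorescence for expression and streptavidin fluorescence for reagent binding. Before sorting, galactose-induced (36–48 hours) yeast display cells were stained for 1 hour at 4 °C with 10% biotinylated, detergent-solubilized Sf9 membrane reagent.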

| Sequence | polyreactivity (PSR sort gate) |
| --- | --- |
| QVQLVESGGGLVQAGGSLRLSCAASGIIIARNTMGWYRQAPGKERELVAAISTRGTTTYYADSVKGRFTISRDNAENTVYLQMNSLKPEDTAVYYCAAVRVHTDRYNYWGQGTQVTVSS | high polyreactivity |
| QVQHVESGGGLVQAGGSLRLSCAASGIISYKNVMGWYRQAPGKERELVAAISGRGGSTYYADSVKGRFTISRDNAKNTVYLQMNSLKPEDTAVYYCAKYPGISGYNYWGQGTQVTVSS | high polyreactivity |
| QVQLVESGGGLVQAGGSLRLSCAASGRIFYRNAMGWYRQAPVKERELVASITWRGGRTYYADSVKGRFTISRDNAKNTVYLQMNSLKQEDTAVYYCNAAPRTYNAWDFDYWGQGTQVTVSS | high polyreactivity |
| QVLLVESGPGLVQAGGSLRLSCAASGSTLYYYAMGWYRQAPGKERELVAAITWSGDSTYYADSVKGRFTISRYNAKNTVYLQMNSLIPEDTAVYYCASEVESYDQYYTYDYWGQGTQVTVSS | high polyreactivity |
| QVQLVESGGGLVQAGGSLRLSCAASGFILYGNTMGWYRHAPGKDRELVAAISWSGGNTRYADSVKGRFTISRDNAKNTVYLQMNSLKQDDTAVYYCAAYSKYVLSIRRDYWGQGTQVTVSS | low polyreactivity |
| QVQLVESGGGLVQAGGSLRLSCAASGSIFYDNAMGWYRQAPGKERELVAAISGNDATTYYADSVKGRFTISRDNAKNTVYLQMNSLKPEDTAVYSCAADYVLNPWRTRYDYWGQGTQVTVSS | low polyreactivity |
| QVQLVESRGGLDQAGGSLRLSCAASGSIFNAYVMGWYRQAPGKERELVAAISRSGGRTYYADSVKGRFTISRDNAKNTVYLQMNSLKPEDTAVYYCAASTIWHYDSWGQGTQVTVSS | high polyreactivity |
| QVQLVESGGGLVQAGGSLRLSCAASGFIFRYNAMGWYRQAPGKERELVAAISSSGTTNYADSVKGRFTISRDNAKNTVYLQMNSLKPEDTAVYYCAADRRDRSPYYYWGQGTQVTVSS | high polyreactivity |
| QVQLVESGGGLVQAGGSLRLSCAASGAMGWYRQAPGKERELVAGITSGGSTNYADSVKGRFTISRDNAKNTVYLQMNSLKPEDTAVYDCNAVGGPRWLSVGWPYDYWGQGTQVTVSS | low polyreactivity |
| QVQLVESGGGLVQAGGSLRLSCAASGYTFYSYAMGWYRQEPGKERELVAAIRTGGGTIYADSVKGRFTISRDNAKNTVYLQMNSLKPEDTAVYYCAAESGYPVYTYVSSGDYWGQGTQVTVSS | low polyreactivity |
| QVQLVESGGGLVQAGGSLRLSCAASGITFGYYAMGWYRQAPGKERELVASISWSGDSTYYADSVKGRFTISRDNAKNTVYLQMNSLKPEDTAVYYCNRGSSWEYGAEYNYWGQGTQETVSS | low polyreactivity |
| QVHLLERGGGLVQAGGSLRLSCMASGSILGDSMSWYRQAPGKEHELVATIYDGGITYYADSMKGRFTISRDNAKNSVYLQMNSLRPEDTAVYYCGASFEGYSYHVYCGQGTQVTVSS | low polyreactivity |
| QVQLVESGGGLVQAGGSLRLTCAASGSIFWGNAMGWYRQAPGKERELVATISWSAGSTYYADSVKGRFTISRDNAKNTVYLQMNSLKPEDTGVYYCATDFRHSTLYYYWGQRTQVTVSS | low polyreactivity |
| QVQLVESGGGLVHAGGSLRLSCAASGSIFRPYAMGWYRQAPGKERELVAAISRRGGSTYYADSVKGRFTISRDNAKNTVYLQLISLKPEDTAVYYCAADHSGPSPYGYGYWGQGTQVTVSS | high polyreactivity |
| QVQLVESGGGLVQAGGSLRLSCDASGSILWLNAMGWYRQAPGKERELVADITRGGSTYYADSVKGRFTISRDNAKNTVYLQMNSLKPEDTAVYYCAARLYGGYDWGQGTQVTVSS | high polyreactivity |
| QVQLVESGGGLVQAGGSLRLSCAASGSTFTYNAMGWYRQAPGKERELVAAIDRSVSTNYADSVKGRFTISRDNAKNTVYLQMNSLKPEDTAVYYCNARHPTDDIVIYDYWGQGTQVTVSS | low polyreactivity |
| QVQLVESGGGLVQAGGSLSLICAASGRIYPKYAMGWYRQAPGKERELVAGITKRVGSTYYADSVKGRFTISRDNAKHTVYLQMTSLKPEDTAGYYCAKRWVSGPHGYWGQGTQVTVSS | low polyreactivity |
| QVQLVESGGGLFKAGGSLRLSCAASGFNFSNYAKGWYRQAPGKERELVATISWSGGRTYYADSVKGRFTISRDNAKNTVYLQMNSLKPEDTEVYYCAAEYYTGYFKYDYWGQGTQVTVSS | high polyreactivity |
| QVQLVESLGGLLHAGGSLRLSCGASGSIFGSNALGWYRQAPGKERELVAAINYSGGSTTYADSVKGRFTISRDNAKNTVYLQMTSLKPEDTAVYYCNADVLYQFDEGVWSDYWGQGTQVTVSS | low polyreactivity |
| QVQLVESGGGLVQAGGSLRLSCAASGFIFPRYVMGWYRQAPGKERELVAAITQGGGSTYYADSVKGRFTISRDNAKNTVYLQMNSLKPEDTAVYYCAAEVWRSYGYWGQGTQVTVSS | low polyreactivity |
| QVQLVESGGGLVQAGGSLRLSCAASGRIFISNAKGWYRQAPGKERELVAAITWIGDRTYYADSVKGRFTISRDNAKNTVYLQMNSLKPEDTAVYYCNRVTSRVSGRYSYDYWGQGTQVTVSS | high polyreactivity |
| QVQLVESGGGLVQAGGSLRLSCAASRIIFTHNAMGWYRQAPGKERELVAAISWSGGSTYYADSVNGRFTISRDNAKNTVYIEMNSLKPEDTAVYYCAAPYFTYGQDDDDYWGQGTQVTVSS | low polyreactivity |

| Sequence | polyreactivity (PSR sort gate) |
| --- | --- |
| QVQLVESGGGLVQAGGSLRLSCAASGFTFNRYAMGWYRQAPGKERELVATITSGGNTYYADSVKGRFTISRDNAKNTVYLQMNSLKPEDTAVYYCNKRGWYSVYRRDYWGQGTQVTVSS | high polyreactivity |
| QVQLVESGGGLVQAGGSLRLSCAASGRIFYSYAMGWYRQAPGKELELVAAIDESDGSTYYADSVKGRFTISRDNAKNTVYLQMNSLKPEDTAVYYCAADSLLVLFDYWGQGTQVTVSS | low polyreactivity |
| QVQRVESGGGLVQAGGSLRLSCAASGRTFPWNVMGWYRQAPGKERELVAAISWSSGRTYYADSVKGRFTISRDNAKNTVYLQMNSLKPEDTAVYYCAAVYKVHSGLYEYWGQGTQVTVSS | high polyreactivity |
| QVQLVDSGGGLVQAGGSLRLSCAASGSIFPRYAMGWYRQAPGKERELVASISASGGSTYYADSVKGRFTISRDNAKITVYLQMYSLKPEDTAVYYCAKADRTGWLDGDYWGQGTQVTVSS | low polyreactivity |
| QVQLVESGGGLVQAGGSLRLSCAASGSIFPYYAMGWYRQAPGKERELVAAITWSGGGTYYADSVKGRFTISRDNAKNTGYLQMNSLKPEDTAVYYCAASYRYYWFDYWGQGTQVTVSS | high polyreactivity |
| QVQLVESGGGLFQAGGSLRLSCAASGSTFKFNAMGWYRQAPGKEWELVAAISNRGGTTYYADSVKGRFTISRDNAKNTVYLLMNSLKQEDTAVYYCAAGRVQYYYFWGQGTQVTVSS | high polyreactivity |
| QVQLVESGRGLVQAGGSLRLSCAASGITCPVNVMGWYRQAPGKERELVAAISTSGGSTYYADSVKGRFTISRDNAKNTVYLQMNSLKPEDTAVYYCARQYIRSSYGYWGQGTQVTVSS | low polyreactivity |
| QVQLVESGGGLVQAGGSLRLSCAGSGFSFPNNGMGGYRQAPGKERELVAAIRSSGGSTYYADSVKGRFTISRDNAKNTVYLQMNSLKPEDTAVYYCNARRRGGYVGRPRYPVAAYDYWGQGTQVTVSS | low polyreactivity |
| QVQLVESGGGLVQEGGSLRFSCAASGSTFHSYAMGWYRQAPGKERELVAAISTSGGTTYYADSVKGRFTISRDNAKNTVYLQMNSLKPEDTAVYYCAARRVTSPFGTDSWGQGTQVTVSS | low polyreactivity |
| QVQLVESGVGLVQAGGSLRLSCAASGRTIDHYAMGWYRQAPGKERELVAAISTTGGSTYYADSVKGRFTISRDNAKNTVYLQMNSLKPEDTAVYYCAARGLRTGGYWGQCTQVTVSS | high polyreactivity |
| QVQLVESGGGLVQAGGSLRLSCAASGRISLRNGMGWYRQAPGKERELVAAISRGGSTYYADSVKGRFTISRDNAKNTVYLHMNSLKPEDTAVYYCNAYIRPIYVDDDYWGQSTQVTVSS | low polyreactivity |
| QVQLVDSGGGLVQAGGSLRLSCAASGRTFGVYAMGWYRQAPGKERELVAVINRSGGSTYYADSVKGRFTISRDNAKNTVYLQMNSLKPEDTAVYYCAARVTSHMYYWGQGTQVTVSS | high polyreactivity |
| QGQHVESGGGLVQAGGSLRLSCAASGNILASNGMGWYRQAPGKERELVAAITFSGDTTYYADSVKGRFTISRDNAKNTVYLQMNSLKPEDTAVYYCNDGSFIVNGGYDGDYWGQGTQVTLSS | low polyreactivity |
| QVQLVESGGGLVQAGGSLRLSCAASGSTFYIYAMGWYRQAPGKERELVAAITWSGGSTYYADSVKGRFTISRDNAKNTVYLQMNSLKPEDTAVYYCAAQVWYSKSPTVDVYFDYDYWGQGTQVTVSS | low polyreactivity |
| QVQLVESGGGLVQAGGSLRLSCAASGNTFHSYVMGWYRQAPGKERELVAAITSGGSTYYADSVKGRFTISRDNAKNTVYLQMNSLKPEDTAVYYCAVDAWTGESYWEHYYWGQGTQVTVSS | low polyreactivity |
| EVQLQESGGGLVQAGGSLRLSCAASGYTYNEYVMGWYRQATGKERELVAAISGSGGSTYYADSVKGRFTISRDNAKNTVYLQMNSLKPEDTAVYYCAARGYNSRGYDMDYWGQGTQVTVSS | high polyreactivity |
| QVQLVESGGGLVQAGGSLRLSCAASGLILNYYTMGSYRQAPGKERELVATISSSTGSTYYADSVKGRFTISRDNAKNTVYLQMNSLKPEDTAVYYCAADHWSYWQIYEYWGQGTQVTVSS | low polyreactivity |
| QVQLVESGGGLVQAGGSLRLSCAASGFTYPGYAMGWYRQAPRKERELVASITDNGANTYYADSVKGRFTISRDNAKNTVYLQMNSLKPEDTAVYYCAADPGRVTRVGVRYYYWGQGTQVTVSS | high polyreactivity |
| QVQLVESGGGLVPAGGSLRLSCAASGLTFTTYAMGWYRQAPGKERELVAANSNSGATTYYADSVKGRFTISRDNAKNTVYLQMNSLKREETAVYYCAATSYTATWRYYYWGQGTQVTVSS | high polyreactivity |
| QVQLVESGGGLVQAGGSLRLSCAASGSTFRVNAMGWYRQAPGKEREFVATIRGGGVRTYYADSVKGRFTISRDNAKNTVYLQMNSLKPEDTAVYYCAVAGGTPGAYRRFNYWGQGTQVTVSS | high polyreactivity |
| QVQLVESGGGLVQAGGSLRLTCAASGSTFPYNAMGWYRPATGKERELVASITGGRKKYADSVKGRFTISRDNEKNTVYLQMNRLKREDTAVYYCAADYYSLWIRRDSNYWGQGTQVTVSS | low polyreactivity |
